Experimental data published in patent US8410045B2, “Camptothecin-peptide conjugates and pharmaceutical compositions containing the same” (Drais Pharmaceuticals, Inc., priority 2006, dated 2013).
“And” between values parts separate entries of the source, which are not always exact repeats. Equal entries are not always repeated. Where two headings read alike, the source gives them in different places.

How the values were obtained:
[1] = test system: NCI-H460 human epithelial lung carcinoma cells; experiment: In vitro cytotoxicity (WST-1 cell viability); assay type: cell-based; conditions: 24 h
[2] = Pharmacokinetic study in the dog (blood, HPLC fluorescence); assay type: in vivo
Protocol: Peripheral blood samples were taken at different times following infusion for pharmacokinetic analysis.
Blood samples (2.5 mL) were collected in 5 mL in trisodium citrate tubes (Sarstedt S-Monovette® 9NC) containing 2.5 mL of 5% TFA (v/v) and vortexed for 5 seconds before storage at −80° C. (for less than two weeks).
Samples were then analyzed after a TFA and acetonitrile extraction by an HPLC fluorescence method, described below. […] Whole blood samples were acidified with TFA to protect the ester link of the conjugate against hydrolysis and allow protein precipitation to improve conjugate and SN38 recovery.
Five hundred microliters of each sample were then placed in 1.5 mL micro-centrifuge tubes to and centrifuged at 16000×g 3 min at +4° C. […] Methanol (100 μL) was then immediately added and the mixture stirred vigorously (vortex) for 5 seconds. Samples were then centrifuged at 16000×g, 3 min at room temperature.
One hundred and fifty microliters of the supernatant was recovered for HPLC analysis.
DPV1047-BCH-SN38 and its metabolite SN38 were separated by high-performance liquid chromatography (HPLC Agilent 1100 with a fluorescence detector) using the following method: […]

[3] = Toxicity study in the beagle dog following intravenous infusion; conditions: for Reduction in WBC at D5 (%) / Toxic signs Day 1 / Toxic signs Following Days: i.v. infusion
Protocol: Adult female and male beagle dogs were individually housed with free access to tap water. A pellet diet was distributed daily.
Dogs (1 dog for each drug and dose) were infused intravenously through the cephalic or saphenous vein. These intravenous infusions were made using a single-use catheter (Intraflon®) and a plastic syringe connected to a syringe pump. During the injection, the animals were restrained in a hammock.
Conjugates were dissolved in water for injection (10% of final volume) and diluted with 0.9% NaCl to their final concentration. The volume administered to each animal was adjusted according to body weight.
Clinical signs, hematological and intestinal toxicities were monitored during a period of 15 days after infusion. Each animal was checked at least twice a day for mortality or signs of morbidity.
The body weight of each animal was recorded on the day −1, 4, 10 and 13.
Peripheral blood samples were taken into EDTA tubes for the determination of following parameters on days −1, 5, 11 and 14: erythrocytes, hemoglobin, mean cell volume, packed cell volume, mean cell hemoglobin concentration, mean cell hemoglobin, thrombocytes, leucocytes, differential white cell count with cell morphology.

NCI-H460 lung carcinoma = experiment: Antitumor efficacy in NCI-H460 lung carcinoma model in nude mice; conditions: Table 7, i.v. Q2D3 × 3 W
[4] = Stability of conjugates in citrated plasma at 37° C. (half life time, HPLC fluorescence); assay type: in vitro ADME; conditions: DPV1047-linker-SN38, 2.55 μM
Protocol: The stability of the conjugates was tested in citrated plasma (10% (v/v) sodium citrate buffer, 0.106M) from different species (see Table 1 below). The conjugates at 2.55 μM were incubated at 37° C. in plasma. Samples were analysed using the HPLC fluorescence method described below (see chromatographic equipment and conditions) following TFA/acetonitrile extraction and the amount of free camptothecin, analogs or derivatives thereof (e.g. SN38) released by the conjugates was measured.
Chromatographic equipment and conditions: 150 μL of each sample were placed in 1.5 mL micro-centrifuge tubes. 450 μL of 5% (v/v) TFA in H2O was added to each tube and the mixture was vortexed for 5 seconds. Samples were then centrifuged at 16000 g, 3 minutes at +4° C. 100 μL of supernatant were placed in 1.5 mL micro-centrifuge tubes. Methanol (100 μL) was then immediately added and vortexed for 5 seconds. Samples were then centrifuged at 16000 g, 3 minutes at room temperature. 150 μL of supernatant were recovered for HPLC analysis. Conjugates, metabolites and camptothecin derivative (i.e. SN38) were separated by high-performance liquid chromatography (HPLC; Agilent 1100 series equipped with a fluorescence detector) using a 4.6×100 mm ([…] particle size) Luna C18(2) column (Phenomenex ref. 00D-4251-E0, Le Pecq, France). The aqueous component of the mobile phase (A) was 0.1% (v/v) TFA in water. The organic modifier (B) was acetonitrile containing 0.1% (v/v) TFA. For the conjugate and its metabolites an elution gradient increasing linearly the proportion of B from 15 to 37% in 2 min, from 37 to 47% in 6 min, followed by 2 min at 90% was applied with a constant flow rate of 1.2 mL/min. The proportion of B was then returned to the initial condition for 3.0 min.
The half life time of conjugate corresponds to the time necessary to have 50% by mole of free camptothecin, analogs or derivatives thereof released by the conjugates of the invention. In human plasma, the half life time of conjugate DPV1047-linker #1-SN38 (less than 5 mins) was shorter than that of conjugate DPV1047-linker #2-SN38 (6-7 mins), which, in turn, was shorter than that of conjugate DPV1047-linker #3-SN38 (12 mins).

HT-29 tumors = experiment: Combination of DPV1047-BCH-SN38 with 5-FU or bevacizumab in the HT-29 tumor model; conditions: i.v.
Protocol: Mice were implanted with HT-29 tumors and treated by intraperitoneal administration (bevacizumab) or bolus intravenous injection (5-FU or DPV1047-BCH-SN38) at 10 μL/g. […] The T/C ratio was calculated following treatment with either bevacizumab, 5-FU or DPV1047-BCH-SN38. These T/C ratios were used to evaluate the expected T/C for combined treatment with bevacizumab and DPV1047-BCH-SN38, or 5-FU and DPV1047-BCH-SN38 (T/C of DPV1047-BCH-SN38×T/C of bevacizumab or 5-FU). […] The combination index of the two molecules was calculated by dividing the expected T/C by the observed T/C.

CCc1c2c(nc3ccc(OC(=O)[C@H]4CC[C@H](CNC(=O)C5CCC(CN6C(=O)CC(SC[C@H](N)C(=O)N[C@H](C(=O)N[C@@H](CCCCN)C(=O)N[C@@H](CCCNC(=N)N)C(=O)NCC(=O)N[C@@H](CC(C)C)C(=O)N[C@@H](CCCCN)C(=O)N[C@@H](CC(C)C)C(=O)N[C@@H](CCCNC(=N)N)C(=O)N[C@@H](Cc7c[nH]cn7)C(=O)N[C@H](C(=O)N[C@@H](CCCNC(=N)N)C(=O)N7CCC[C@H]7C(=O)N[C@@H](CCCNC(=N)N)C(=O)N[C@H](C(=O)N[C@H](C(=O)N[C@@H](CCCNC(=N)N)C(=O)N[C@@H](CCSC)C(=O)N[C@@H](CC(=O)O)C(=O)N[C@H](C(=O)O)C(C)C)[C@@H](C)O)C(C)C)C(C)C)C(C)C)C6=O)CC5)CC4)cc13)-c1cc3c(c(=O)n1C2)COC(=O)[C@]3(O)CC (single isomer, unassigned) [DPV1047-BCH-SN38]
IC50 [1]: 0.04 µM
circulating half life time in the blood compared to DPV1047-MIC-SN38 ([2]; dog blood (FIG. 2)): longer
AUC of SN38 compared to DPV1047-MIC-SN38 ([2]; dog blood, equimolar dose (FIG. 1)): significantly greater
SN38 Cmax and AUC versus dose of the conjugate ([2]; dog blood, non-toxic doses (DPV1047-BCH-SN38 ≦20 mg/kg, DPV1047-MIC-SN38 ≦50 mg/kg)): increased linearly with the dose
reduction in WBCs ([3]; dog, 20 mg/kg): 93%
clinical signs of toxicity ([3]; dog, 30 mg/kg): clear toxicological signs including diarrhea and a severe hematoxicity
Reduction in WBC at D5 (%) ([3]; dog, 5 mg/kg): −60%
Toxic signs Day 1 ([3]; dog, 5 mg/kg): None
Toxic signs Following Days ([3]; dog, 5 mg/kg): None
Reduction in WBC at D5 (%) ([3]; dog, 10 mg/kg): −50% and −57%
Toxic signs Day 1 ([3]; dog, 10 mg/kg): None
Toxic signs Following Days ([3]; dog, 10 mg/kg): None
Reduction in WBC at D5 (%) ([3]; dog, 20 mg/kg): −93%
Toxic signs Day 1 ([3]; dog, 20 mg/kg): None
Toxic signs Following Days ([3]; dog, 20 mg/kg): Decrease in food
Reduction in WBC at D5 (%) ([3]; dog, 30 mg/kg): −96%
Toxic signs Day 1 ([3]; dog, 30 mg/kg): None
Toxic signs Following Days ([3]; dog, 30 mg/kg): Liquid faeces D4
MTD ([3]; dog, in vivo, iv): ~20 mg/kg
clinical signs ([3]; dogs, 5 and 10 mg/kg): no clinical signs
Optimal T/C % (NCI-H460 lung carcinoma; 12.5 μmol/kg): 47.5%
TGI % (NCI-H460 lung carcinoma; 12.5 μmol/kg): 52.5%
Optimal T/C % (NCI-H460 lung carcinoma; 25 μmol/kg): 22.9%
TGI % (NCI-H460 lung carcinoma; 25 μmol/kg): 77.1%
half-life ([4]; time to 50% by mole free SN38 released, read-out: Half life time, Mouse plasma): < 3 min
half-life ([4]; monkey): 290 min
half-life ([4]; rat): 14 min
Single treatment DPV1047-BCH-SN38 T/C % (HT-29 tumors; 12.5 μmol/kg, 5-FU combination experiment): 68%
Single treatment DPV1047-BCH-SN38 T/C % (HT-29 tumors; 12.5 μmol/kg, bevacizumab combination experiment): 77%
Single treatment DPV1047-BCH-SN38 T/C % (HT-29 tumors; 25 μmol/kg, 5-FU combination experiment): 50%
Single treatment DPV1047-BCH-SN38 T/C % (HT-29 tumors; 25 μmol/kg, bevacizumab combination experiment): 69%
